Measurements published in IntAct's records for PubMed 20924357.

Legend:
bglg_ecoli bglG [1] = target: bglg_ecoli bglG (UniProt P11989)
bglg_ecoli bglG [2] = target: bglg_ecoli bglG (UniProt P11989); remark: listed apart in the source
bglg_ecoli bglG [3] = target: bglg_ecoli bglG (UniProt P11989); remark: listed apart in the source

Chain of bglg_ecoli bglG (P11989 whole entry): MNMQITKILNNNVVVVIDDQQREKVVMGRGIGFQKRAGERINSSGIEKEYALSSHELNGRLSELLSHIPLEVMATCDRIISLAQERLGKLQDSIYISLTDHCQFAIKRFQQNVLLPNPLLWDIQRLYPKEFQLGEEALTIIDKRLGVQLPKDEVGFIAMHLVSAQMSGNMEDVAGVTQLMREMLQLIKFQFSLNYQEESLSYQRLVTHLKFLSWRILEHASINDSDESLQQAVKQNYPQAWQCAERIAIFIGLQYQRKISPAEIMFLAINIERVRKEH

effect of a mutation on the interaction (bglg_ecoli bglG [1])	effect of a mutation on the interaction (bglg_ecoli bglG [2])	effect of a mutation on the interaction (bglg_ecoli bglG [3])	Substance
increasing interaction			Phosphocarrier protein HPr (Escherichia coli (strain K12)), P0AA04 H15A
	disrupting interaction	decreasing interaction	Phosphoenolpyruvate-protein phosphotransferase (Escherichia coli (strain K12)), P08839 H189A
